Measurements: article PMC8303963, “Action of Multiple Rice β-Glucosidases on Abscisic Acid Glucose Ester” (International Journal of Molecular Sciences, 2021)

Substrate: CC1=CC(=O)CC(C)(C)[C@@]1(O)/C=C/C(C)=C\C(=O)O[C@@H]1O[C@H](CO)[C@@H](O)[C@H](O)[C@H]1O
Test: glucose release by peroxidase/glucose oxidase assay, Michaelis-Menten fit
Format: biochemical, Oryza sativa
Conditions: 50 mM sodium acetate pH 5, 30 °C
From the text: glucose release by peroxidase/glucose oxidase assay, Michaelis-Menten fit on Os4BGlu12

B1: Os4BGlu12 (Oryza sativa Japonica Group) (protein)
chain: AYNGAGEPPVSRRSFPKGFIFGTASSSYQYEGGAAEGGRGPSIWDTFTHQHPEKIADRSNGDVASDSYHLYKEDVRLMKDMGMDAYRFSISWTRILPNGSLRGGVNKEGIKYYNNLINELLSKGVQPFITLFHWDSPQALEDKYNGFLSPNIINDFKDYAEICFKEFGDRVKNWITFNEPWTFCSNGYATGLFAPGRCSPWEKGNCSVGDSGREPYTACHHQLLAHAETVRLYKAKYQALQKGKIGITLVSHWFVPFSRSKSNDDAAKRAIDFMFGWFMDPLIRGDYPLSMRGLVGNRLPQFTKEQSKLVKGAFDFIGLNYYTANYADNLPPSNGLNNSYTTDSRANLTGVRNGIPIGPQAASPWLYVYPQGFRDLLLYVKENYGNPTVYITENGVDEFNNKTLPLQEALKDDARIEYYHKHLLSLLSAIRDGANVKGYFAWSLLDNFEWSNGYTVRFGINFVDYNDGRKRYPKNSAHWFKKFLLK
notes: recombinant from E. coli, IMAC purified; N-terminal thioredoxin and His6 tags cut off with enterokinase
B1 showed a Km of 10.9 ± 0.9 mM, a kcat of 7.5 ± 0.0002 s⁻¹ and a kcat/Km of 689 M⁻¹ s⁻¹.
